Results published in patent publication US8840891 (RSR, dated 2014).
Like-named read-outs stand apart in the source and are kept apart here.

How the values were obtained:
Experiment in all cases: cell-based or functional assay
[1] = biological target: wild type human TSHR (human) (UniProt P16473)
[2] = biological target: TSHR with Arg80 mutated to Alanine (human) (UniProt P16473)
[3] = biological target: TSHR with Asp151 mutated to Alanine (human) (UniProt P16473)
[4] = biological target: wild type human TSHR (human) (UniProt P16473); remark: listed apart in the source

Chain of 5C9 IgG (antibody) (VH): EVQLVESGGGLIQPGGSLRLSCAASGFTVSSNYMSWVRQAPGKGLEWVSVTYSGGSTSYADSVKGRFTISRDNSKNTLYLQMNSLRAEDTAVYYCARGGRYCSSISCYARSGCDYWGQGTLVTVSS
Chain of 5C9 IgG (antibody) (VL): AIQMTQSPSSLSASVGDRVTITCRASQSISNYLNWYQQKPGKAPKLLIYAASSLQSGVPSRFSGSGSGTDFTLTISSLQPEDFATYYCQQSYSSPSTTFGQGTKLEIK

In the case of 5C9 IgG (antibody), the cyclic AMP; 5C9 0.01 µg/mL + TSH (fmol/cell well) [1] is reported as 14400, the cyclic AMP; 5C9 0.1 µg/mL + TSH (fmol/cell well) [1] is reported as 11300 and the cyclic AMP; 5C9 1.0 µg/mL + TSH (fmol/cell well) [1] is reported as 6700. It also gave a cyclic AMP; 5C9 10 µg/mL + TSH (fmol/cell well) [1] of 2110, a cyclic AMP; 5C9 100 µg/mL + TSH (fmol/cell well) [1] of 2230 and a cyclic AMP; 5C9 100 µg/mL only (fmol/cell well) [1] of 244. The Mutated/wild type (%); 5C9 0.01 µg/mL + TSH [2] was 99%, the Mutated/wild type (%); 5C9 0.1 µg/mL + TSH [2] was 82% and the Mutated/wild type (%); 5C9 1.0 µg/mL + TSH [2] was 20%. It also gave a Mutated/wild type (%); 5C9 10 µg/mL + TSH [2] of 55%, a Mutated/wild type (%); 5C9 100 µg/mL + TSH [2] of 23% and a Mutated/wild type (%); 5C9 100 µg/mL only [2] of 202%. It also gave a cyclic AMP; 5C9 0.01 µg/mL + TSH (fmol/cell well) [2] of 14300, a cyclic AMP; 5C9 0.1 µg/mL + TSH (fmol/cell well) [2] of 9280 and a cyclic AMP; 5C9 1.0 µg/mL + TSH (fmol/cell well) [2] of 1360. For the same substance, the cyclic AMP; 5C9 10 µg/mL + TSH (fmol/cell well) [2] was 1160, the cyclic AMP; 5C9 100 µg/mL + TSH (fmol/cell well) [2] was 518 and the cyclic AMP; 5C9 100 µg/mL only (fmol/cell well) [2] was 494. It also gave a Mutated/wild type (%); 5C9 0.01 µg/mL + TSH [3] of 112%, a Mutated/wild type (%); 5C9 0.1 µg/mL + TSH [3] of 143% and a Mutated/wild type (%); 5C9 1.0 µg/mL + TSH [3] of 465%. For the same substance, the Mutated/wild type (%); 5C9 10 µg/mL + TSH [3] was 599%, the Mutated/wild type (%); 5C9 100 µg/mL + TSH [3] was 162% and the Mutated/wild type (%); 5C9 100 µg/mL only [3] was 224%. For the same substance, the cyclic AMP; 5C9 0.01 µg/mL + TSH (fmol/cell well) [3] was 12600, the cyclic AMP; 5C9 0.1 µg/mL + TSH (fmol/cell well) [3] was 9960 and the cyclic AMP; 5C9 1.0 µg/mL + TSH (fmol/cell well) [3] was 6450. For the same substance, the cyclic AMP; 5C9 10 µg/mL + TSH (fmol/cell well) [3] was 2280, the cyclic AMP; 5C9 100 µg/mL + TSH (fmol/cell well) [3] was 1540 and the cyclic AMP; 5C9 100 µg/mL only (fmol/cell well) [3] was 395. It also gave a cyclic AMP; 5C9 0.01 µg/mL + TSH (fmol/cell well) [4] of 11200, a cyclic AMP; 5C9 0.1 µg/mL + TSH (fmol/cell well) [4] of 6950 and a cyclic AMP; 5C9 1.0 µg/mL + TSH (fmol/cell well) [4] of 1390. It also gave a cyclic AMP; 5C9 10 µg/mL + TSH (fmol/cell well) [4] of 380, a cyclic AMP; 5C9 100 µg/mL + TSH (fmol/cell well) [4] of 945 and a cyclic AMP; 5C9 100 µg/mL only (fmol/cell well) [4] of 176.
